Reference: US20160326228A1 (ACCELERON PHARMA, published 2016)
Where a chain is given by its changes, count along the chain named. Names may count otherwise. One block for each binder: values may come before it.

What was measured:
[1] = target: T1, Growth and Differentiation Factor-11 (GDF11) (UniProt O95390 299-407); test: BiaCore; ligand coupled, receptor flowed over
T1 construct: also called BMP11
T1 sequence (looked up): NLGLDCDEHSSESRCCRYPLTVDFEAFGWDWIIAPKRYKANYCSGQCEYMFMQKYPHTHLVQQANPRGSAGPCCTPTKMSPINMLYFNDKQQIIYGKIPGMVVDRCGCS

Activin A [2] = target: T2, Activin A (UniProt P08476 311-426); test: BiaCore; ligand coupled, receptor flowed over
T2 construct: also called ActA
T2 sequence (looked up): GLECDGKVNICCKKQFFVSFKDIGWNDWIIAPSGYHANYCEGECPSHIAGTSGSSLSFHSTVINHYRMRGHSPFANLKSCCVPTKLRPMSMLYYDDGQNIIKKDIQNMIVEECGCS

[3] = target: T1, Growth and Differentiation Factor-11 …; test: BiaCore; receptor-Fc captured by anti-hFc antibody, ligand injected
Protocol: (§1) Binding of certain ActRIIB-Fc proteins and GDF Traps to ligands was tested in a BiaCore™ assay.
(§2) The ActRIIB-Fc variants or wild-type protein were captured onto the system using an anti-hFc antibody. Ligands were injected and flowed over the captured receptor proteins.

Activin A [4] = target: T2, Activin A; test: as above
Protocol: as §1, §2

[5] = target: T3, Growth and Differentiation Factor-8 (GDF8) (UniProt O14793 267-375); test: as above
T3 construct: also called myostatin
T3 sequence (looked up): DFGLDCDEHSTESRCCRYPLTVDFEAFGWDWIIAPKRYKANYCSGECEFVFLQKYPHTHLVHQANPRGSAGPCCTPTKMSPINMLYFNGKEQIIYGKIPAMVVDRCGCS
Protocol: as §1, §2

[6] = target: T1, Growth and Differentiation Factor-11 …; test: BiaCore; ligand coupled, receptor flowed over; legend: <1/5 WT binding
[7] = target: T1, Growth and Differentiation Factor-11 …; test: Biacore; steady-state affinity fit
Protocol: (§3) The affinity of GDF Traps and other ActRIIB-hFc proteins for several ligands was evaluated in vitro with a BiacoreTM instrument. Kd values were obtained by steady-state affinity fit due to the very rapid association and dissociation of the complex, which prevented accurate determination of kₒₙ and koff.

Activin A [8] = target: T2, Activin A; test: Biacore; steady-state affinity fit
Protocol: as §3

Activin B = target: T4, Activin B (UniProt P09529 293-407); test: Biacore; steady-state affinity fit
T4 sequence (looked up): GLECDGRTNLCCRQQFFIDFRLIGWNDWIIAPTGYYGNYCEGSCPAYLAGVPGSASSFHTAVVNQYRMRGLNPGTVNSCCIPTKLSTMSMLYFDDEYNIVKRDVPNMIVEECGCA
Protocol: as §3

Kd [1]: 260 nM
Kd (Activin A [2]): 180 nM
B1: Soluble ActRIIB-Fc WT (64A) (Fc fusion, UniProt Q13705 19-119, looked up)
chain: SGRGEAETRECIYYNANWELERTNQSGLERCEGEQDKRLHCYASWANSSGTIELVKKGCWLDDFNCYDRQECVATEENPQVYFCCCEGNFCNERFTHLPEA
notes: whole entry named; not shown: linker (if any) and Fc

Kd [3]: 0.0519 nM
koff [3]: 6.35e-05 s⁻¹
Kd (Activin A [4]): 0.104 nM
koff (Activin A [4]): 0.000346 s⁻¹
kon (Activin A [4]): 3.34e+06 M⁻¹ s⁻¹
B2: ActRIIB(A24N 20-134)-hFc (Fc fusion)
chain: GRGENETRECIYYNANWELERTNQSGLERCEGEQDKRLHCYASWRNSSGTIELVKKGCWLDDFNCYDRQECVATEENPQVYFCCCEGNFCNERFTHLPEAGGPEVTYEPPPTAPT
notes: also called A24N variant; not shown: linker (if any) and human Fc (hFc)

Kd (Activin A [4]): 0.0831 nM
koff (Activin A [4]): 0.000417 s⁻¹
kon (Activin A [4]): 5.02e+06 M⁻¹ s⁻¹
Kd [5]: 1.67 nM
koff [5]: 0.00018 s⁻¹
B3: ActRIIB(P129S, P130R 20-134)-hFc (Fc fusion)
chain: B2 chain with N5A, P110S, P111R
notes: T0017 prints a P129S P130A variant; kept as a separate molecule; not shown: linker (if any) and human Fc (hFc)

Kd [5]: 0.0718 nM
koff [5]: 2.03e-05 s⁻¹
B4: ActRIIB(K74A 20-134)-hFc (Fc fusion)
chain: B2 chain with N5A, K55A
notes: not shown: linker (if any) and human Fc (hFc)

Kd [3]: 0.0356 nM
koff [3]: 2.41e-05 s⁻¹
Kd (Activin A [4]): 0.0476 nM
koff (Activin A [4]): 0.000325 s⁻¹
kon (Activin A [4]): 6.82e+06 M⁻¹ s⁻¹
Kd [5]: 0.21 nM
koff [5]: 4.71e-05 s⁻¹
B5: ActRIIB(R64K 20-134)-hFc (Fc fusion)
chain: B2 chain with N5A, R45K
notes: as for B4

binding result [1]: no binding
B6: Soluble ActRIIB-Fc variant D54A (Fc fusion)
chain: GRGEAETRECIYYNANWELERTNQSGLERCEGEQAKRLHCYASWANSSGTIELVKKGCWLDDFNCYDRQECVATEENPQVYFCCCEGNFCNERFTHLPEA
notes: as for B1

binding result [1]: no binding
binding result (Activin A [2]): no binding
B7: Soluble ActRIIB-Fc variant D80K (Fc fusion)
chain: B6 chain with A35D, D61K
notes: as for B1

binding result [1]: no binding
binding result (Activin A [2]): no binding
B8: Soluble ActRIIB-Fc variant D80F (Fc fusion)
chain: B6 chain with A35D, D61F
notes: as for B1

binding result [1]: no binding
B9: Soluble ActRIIB-Fc variant K55A (Fc fusion)
chain: B6 chain with A35D, K36A
notes: as for B1

binding result (Activin A [2]): no binding
binding relative to WT [6]: < 0.2 fold
B10: Soluble ActRIIB-Fc variant K74F (Fc fusion)
chain: B6 chain with A35D, K55F
notes: as for B1

binding result (Activin A [2]): no binding
binding relative to WT [6]: < 0.2 fold
B11: Soluble ActRIIB-Fc variant K74Y (Fc fusion)
chain: B6 chain with A35D, K55Y
notes: as for B1

binding result (Activin A [2]): no binding
binding relative to WT [6]: < 0.2 fold
B12: Soluble ActRIIB-Fc variant D80I (Fc fusion)
chain: B6 chain with A35D, D61I
notes: as for B1

Kd [1]: 5.3 nM
Kd (Activin A [2]): 4.35 nM
B13: Soluble ActRIIB-Fc variant K74A (Fc fusion)
chain: B6 chain with A35D, K55A
notes: as for B1

binding result (Activin A [2]): no binding
binding relative to WT [6]: < 0.2 fold
B14: Soluble ActRIIB-Fc variant K74I (Fc fusion)
chain: B6 chain with A35D, K55I
notes: as for B1

binding result [1]: no binding
binding result (Activin A [2]): no binding
B15: Soluble ActRIIB-Fc variant D80N (Fc fusion)
chain: B6 chain with A35D, D61N
notes: as for B1

binding result [1]: no binding
binding result (Activin A [2]): no binding
B16: Soluble ActRIIB-Fc variant E37A (Fc fusion)
chain: B6 chain with E18A, A35D
notes: as for B1

binding result [1]: no binding
binding result (Activin A [2]): no binding
B17: Soluble ActRIIB-Fc variant D80M (Fc fusion)
chain: B6 chain with A35D, D61M
notes: as for B1

binding result [1]: no binding
binding result (Activin A [2]): no binding
B18: Soluble ActRIIB-Fc variant D80R (Fc fusion)
chain: B6 chain with A35D, D61R
notes: as for B1

binding result [1]: no binding
binding result (Activin A [2]): no binding
B19: Soluble ActRIIB-Fc variant W78A (Fc fusion)
chain: B6 chain with A35D, W59A
notes: as for B1

binding result [1]: no binding
binding result (Activin A [2]): no binding
B20: Soluble ActRIIB-Fc variant D80G (Fc fusion)
chain: B6 chain with A35D, D61G
notes: as for B1

binding result [1]: no binding
binding result (Activin A [2]): no binding
B21: Soluble ActRIIB-Fc variant D80A (Fc fusion)
chain: B6 chain with A35D, D61A
notes: as for B1

binding result [1]: no binding
binding result (Activin A [2]): no binding
B22: Soluble ActRIIB-Fc variant R56A (Fc fusion)
chain: B6 chain with A35D, R37A
notes: as for B1

binding result [1]: no binding
B23: Soluble ActRIIB-Fc variant L79A (Fc fusion)
chain: B6 chain with A35D, L60A
notes: as for B1

Kd (Activin A [4]): 0.0841 nM
koff (Activin A [4]): 0.000628 s⁻¹
kon (Activin A [4]): 7.46e+06 M⁻¹ s⁻¹
Kd [5]: 2.15 nM
koff [5]: 0.000209 s⁻¹
B24: ActRIIB(R64K 20-129)-hFc (Fc fusion)
chain: GRGEAETRECIYYNANWELERTNQSGLERCEGEQDKRLHCYASWKNSSGTIELVKKGCWLDDFNCYDRQECVATEENPQVYFCCCEGNFCNERFTHLPEAGGPEVTYEPP
notes: as for B4

Kd [7]: 0.031 nM
Kd (Activin A [8]): 0.018 nM
Kd (Activin B): 0.012 nM
B25: ActRIIB(L79 25-131)-hFc (Fc fusion)
chain: ETRECIYYNANWELERTNQSGLERCEGEQDKRLHCYASWRNSSGTIELVKKGCWLDDFNCYDRQECVATEENPQVYFCCCEGNFCNERFTHLPEAGGPEVTYEPPPT
notes: also called ActRIIB(25-131)-hFc; not shown: linker (if any) and human Fc (hFc)

Kd [7]: 0.123 nM
Kd (Activin A [8]): 13.5 nM
Kd (Activin B): 0.788 nM
Kd [3]: 0.655 nM
koff [3]: 0.000439 s⁻¹
Kd [5]: 2.15 nM
koff [5]: 0.00083 s⁻¹
B26: ActRIIB(L79D 20-134)-hFc (Fc fusion)
chain: GRGEAETRECIYYNANWELERTNQSGLERCEGEQDKRLHCYASWRNSSGTIELVKKGCWDDDFNCYDRQECVATEENPQVYFCCCEGNFCNERFTHLPEAGGPEVTYEPPPTAPTGGGTHTCPPCPAPELLGGPSVFLFPPKPKDTLMISRTPEVTCVVVDVSHEDPEVKFNWYVDGVEVHNAKTKPREEQYNSTYRVVSVLTVLHQDWLNGKEYKCKVSNKALPVPIEKTISKAKGQPREPQVYTLPPSREEMTKNQVSLTCLVKGFYPSDIAVEWESNGQPENNYKTTPPVLDSDGSFFLYSKLTVDKSRWQQGNVFSCSVMHEALHNHYTQKSLSLSPGK
notes: also called GDF Trap

Kd [3]: 0.716 nM
koff [3]: 0.000274 s⁻¹
Kd [5]: 2.41 nM
koff [5]: 0.0009 s⁻¹
B27: ActRIIB(L79E 20-134)-hFc (Fc fusion)
chain: B26 chain with D60E
